Results: patent US20200247855A1 (published 2020)
Residue numbers refer to the chain shown, from its start. In names and notes the source's numbering stands. Read-outs that look alike come from different tables or passages of the source.

T1: CCL14_HUMAN (human, UniProt Q16627 22-93)
T1 chain: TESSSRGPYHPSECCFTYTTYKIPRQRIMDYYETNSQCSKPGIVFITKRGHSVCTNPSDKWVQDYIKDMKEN

T2: CCL8_HUMAN (human, UniProt P80075 24-99)
T2 chain: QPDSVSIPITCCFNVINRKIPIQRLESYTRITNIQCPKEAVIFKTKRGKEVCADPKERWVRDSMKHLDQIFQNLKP

T3: CXCL7_HUMAN (human, UniProt P02775 59-128)
T3 chain: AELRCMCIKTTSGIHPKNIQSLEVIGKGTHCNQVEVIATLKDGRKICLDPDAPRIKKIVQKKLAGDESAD

T4: CXCL11_HUMAN (human, UniProt O14625 22-94)
T4 chain: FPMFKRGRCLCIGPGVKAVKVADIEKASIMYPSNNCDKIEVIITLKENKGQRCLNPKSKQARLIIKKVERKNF

T5: CCL4_HUMAN (human, UniProt P13236 24-92)
T5 chain: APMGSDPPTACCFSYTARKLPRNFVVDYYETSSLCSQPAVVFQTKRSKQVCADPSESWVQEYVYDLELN

T6: CCL16_HUMAN (human, UniProt O15467 24-120)
T6 chain: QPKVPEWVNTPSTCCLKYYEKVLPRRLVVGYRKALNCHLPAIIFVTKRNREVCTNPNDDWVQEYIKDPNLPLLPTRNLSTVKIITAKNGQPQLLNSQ

T7: CCL5_HUMAN (human, UniProt P13501 24-91)
T7 chain: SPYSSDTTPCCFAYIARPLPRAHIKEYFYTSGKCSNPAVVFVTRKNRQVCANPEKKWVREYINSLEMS

T8: CCL18_HUMAN (human, UniProt P55774 21-89)
T8 chain: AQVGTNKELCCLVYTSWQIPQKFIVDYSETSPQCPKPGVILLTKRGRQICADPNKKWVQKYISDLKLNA

T9: CCL24_HUMAN (human, UniProt O00175 27-104)
T9 chain: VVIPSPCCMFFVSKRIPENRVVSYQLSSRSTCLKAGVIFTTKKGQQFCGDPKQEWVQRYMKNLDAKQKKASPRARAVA

T10: CCL17_HUMAN (human, UniProt Q92583 24-94)
T10 chain: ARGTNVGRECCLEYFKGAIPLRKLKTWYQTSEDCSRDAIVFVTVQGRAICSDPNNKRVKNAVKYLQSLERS

T11: CCL22_HUMAN (human, UniProt O00626 25-93)
T11 chain: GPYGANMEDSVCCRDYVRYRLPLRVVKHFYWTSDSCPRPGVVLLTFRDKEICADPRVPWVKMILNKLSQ

T12: CCL4L1_HUMAN (human, UniProt Q8NHW4 24-92)
T12 chain: T5 chain with S47G

T13: CCL23_HUMAN (human, UniProt P55773 22-120)
T13 chain: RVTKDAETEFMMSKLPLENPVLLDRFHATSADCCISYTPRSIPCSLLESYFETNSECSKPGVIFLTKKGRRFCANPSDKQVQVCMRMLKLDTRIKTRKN

T14: CCL15_HUMAN (human, UniProt Q16663 22-113)
T14 chain: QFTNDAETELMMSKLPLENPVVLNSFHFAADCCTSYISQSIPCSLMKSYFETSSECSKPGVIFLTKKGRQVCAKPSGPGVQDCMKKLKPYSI

T15: CCL3_HUMAN (human, UniProt P10147 24-92)
T15 chain: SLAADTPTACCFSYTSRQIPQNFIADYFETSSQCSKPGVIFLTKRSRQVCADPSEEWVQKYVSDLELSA

T16: CCL21_HUMAN (human, UniProt O00585 24-134)
T16 chain: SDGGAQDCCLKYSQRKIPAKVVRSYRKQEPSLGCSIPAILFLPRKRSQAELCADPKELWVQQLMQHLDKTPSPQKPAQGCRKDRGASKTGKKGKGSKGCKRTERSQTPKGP

T17: CCL3L1_HUMAN (human, UniProt P16619 24-93)
T17 chain: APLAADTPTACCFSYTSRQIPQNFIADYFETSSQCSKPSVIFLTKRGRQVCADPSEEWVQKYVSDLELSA

T18: CCL1_HUMAN (human, UniProt P22362 24-96)
T18 chain: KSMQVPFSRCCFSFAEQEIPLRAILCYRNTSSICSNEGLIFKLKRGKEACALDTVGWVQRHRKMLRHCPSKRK

T19: CCL27_HUMAN (human, UniProt Q9Y4X3 25-112)
T19 chain: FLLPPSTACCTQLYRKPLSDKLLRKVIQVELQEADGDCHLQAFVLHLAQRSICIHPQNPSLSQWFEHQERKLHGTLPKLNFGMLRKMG

B1: P1243_AMBAM (other)
chain: RNHTEDNSTEYYDYEEARCACPARHLNNTNGTVLKLLGCHYFCNGTLCTAPDGYPCYNLTAQQVRTLTTYPNTSCAVGVCMKGTCVKNGTMEQCFKTP
B2: P1126_AMBCA (other)
chain: KPQILQRTDKSTDSEWDPQTCPETCIPSKNITCSDGCVCVKLGEEEEGTCFNMTGVDWLGSPSDD
B3: P1142_AMBCA (other)
chain: KPQILQRTDHSTDSDWDPQMCPETCNPSKNISCSSECLCVTLGGGDETGTCFNMSGVDWLGHAQASDGHNDG
B4: P991:G4S:P1156 (designed binder)
chain: ENGEGTTQPDYDNSTDYYNYEDFKCTCPAPHLNNTNGTVMKPIGCYYTCNVTRCTAPDTYPCYNLTEHQAKNLTTSPTTLCAVGNCDHGICVPNGTKELCFKAPNLEEGGGGSADDDNELFTVQYCGMNCTKDEGGTWTGCTGKKEGCKCYHESGKNYGLCLSTEYTDFSQYGNPSDSEIEAAKPKRSDTLSH
B5: P1156:G4S:P991 (designed binder)
chain: ADDDNELFTVQYCGMNCTKDEGGTWTGCTGKKEGCKCYHESGKNYGLCLSTEYTDFSQYGNPSDSEIEAAKPKRSDTLSHGGGGSENGEGTTQPDYDNSTDYYNYEDFKCTCPAPHLNNTNGTVMKPIGCYYTCNVTRCTAPDTYPCYNLTEHQAKNLTTSPTTLCAVGNCDHGICVPNGTKELCFKAPNLEE

Experiments:
Test in all cases: BLI
CCL11_HUMAN [1] = molecular target: T20, CCL11_HUMAN (human, UniProt P51671 24-97)
T20 sequence (P51671 24-97): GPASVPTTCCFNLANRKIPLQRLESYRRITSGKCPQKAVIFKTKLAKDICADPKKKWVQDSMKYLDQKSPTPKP

CCL14_HUMAN [2] = molecular target: T1, CCL14_HUMAN
CCL8_HUMAN [3] = molecular target: T2, CCL8_HUMAN
CCL13_HUMAN [4] = molecular target: T21, CCL13_HUMAN (human, UniProt Q99616 24-98)
T21 sequence (Q99616 24-98): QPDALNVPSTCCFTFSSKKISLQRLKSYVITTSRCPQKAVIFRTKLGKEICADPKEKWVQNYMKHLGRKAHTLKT

CXCL7_HUMAN = molecular target: T3, CXCL7_HUMAN
CXCL1_HUMAN [5] = molecular target: T22, CXCL1_HUMAN (human, UniProt P09341 35-107)
T22 sequence (P09341 35-107): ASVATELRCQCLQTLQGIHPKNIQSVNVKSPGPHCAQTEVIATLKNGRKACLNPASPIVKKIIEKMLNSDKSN

CXCL3_HUMAN [6] = molecular target: T23, CXCL3_HUMAN (human, UniProt P19876 35-107)
T23 sequence (P19876 35-107): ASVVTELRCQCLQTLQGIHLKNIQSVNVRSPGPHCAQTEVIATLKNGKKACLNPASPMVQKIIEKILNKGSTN

CXCL2 [7] = molecular target: CXCL2
CXCL5 [8] = molecular target: CXCL5
CXCL6 = molecular target: CXCL6
CXCL4 = molecular target: CXCL4
CXCL11_HUMAN = molecular target: T4, CXCL11_HUMAN
CXCL10_HUMAN = CXCL10_HUMAN (human, UniProt P02778 22-98)
Chain of CXCL10_HUMAN (P02778 22-98): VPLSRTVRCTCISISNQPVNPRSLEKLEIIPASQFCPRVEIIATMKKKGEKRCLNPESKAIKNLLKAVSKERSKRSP

CXCL1_HUMAN [9] = molecular target: T22, CXCL1_HUMAN; remark: listed apart in the source
CXCL8_HUMAN = CXCL8_HUMAN (human, UniProt P10145 28-99)
Chain of CXCL8_HUMAN (P10145 28-99): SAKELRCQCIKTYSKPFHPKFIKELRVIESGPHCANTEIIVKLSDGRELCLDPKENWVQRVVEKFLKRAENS

CXCL3_HUMAN [10] = molecular target: T23, CXCL3_HUMAN; remark: listed apart in the source
CCL4_HUMAN = molecular target: T5, CCL4_HUMAN
CCL16_HUMAN = molecular target: T6, CCL16_HUMAN
CCL11_HUMAN [11] = molecular target: T20, CCL11_HUMAN; remark: listed apart in the source
CCL5_HUMAN = molecular target: T7, CCL5_HUMAN
CCL2_HUMAN = CCL2_HUMAN (human, UniProt P13500 24-99)
Chain of CCL2_HUMAN (P13500 24-99): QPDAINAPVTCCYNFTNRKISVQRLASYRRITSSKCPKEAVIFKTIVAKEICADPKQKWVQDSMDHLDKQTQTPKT

CCL18_HUMAN = molecular target: T8, CCL18_HUMAN
CCL24_HUMAN = molecular target: T9, CCL24_HUMAN
CCL7_HUMAN = CCL7_HUMAN (human, UniProt P80098 24-99)
Chain of CCL7_HUMAN (P80098 24-99): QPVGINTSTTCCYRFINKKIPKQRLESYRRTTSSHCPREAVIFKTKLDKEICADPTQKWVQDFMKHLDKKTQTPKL

CCL17_HUMAN = molecular target: T10, CCL17_HUMAN
CCL14_HUMAN [12] = molecular target: T1, CCL14_HUMAN
CCL22_HUMAN = molecular target: T11, CCL22_HUMAN
CCL4L1_HUMAN = molecular target: T12, CCL4L1_HUMAN
CCL8_HUMAN [13] = molecular target: T2, CCL8_HUMAN
CCL23_HUMAN = molecular target: T13, CCL23_HUMAN
CCL15_HUMAN = molecular target: T14, CCL15_HUMAN
CCL3_HUMAN = molecular target: T15, CCL3_HUMAN
CCL21_HUMAN = molecular target: T16, CCL21_HUMAN
CCL3L1_HUMAN = molecular target: T17, CCL3L1_HUMAN
CCL13_HUMAN [14] = molecular target: T21, CCL13_HUMAN; remark: listed apart in the source
CCL1_HUMAN = molecular target: T18, CCL1_HUMAN
CCL27_HUMAN = molecular target: T19, CCL27_HUMAN
CXCL2 [15] = molecular target: CXCL2; remark: listed apart in the source
CXCL5 [16] = molecular target: CXCL5; remark: listed apart in the source

| Binder | Kd (CXCL7_HUMAN) [nM] | Kd (CXCL1_HUMAN [5]) [nM] | Kd (CXCL3_HUMAN [6]) [nM] | Kd (CXCL2 [7]) [nM] | Kd (CXCL5 [8]) [nM] | Kd (CXCL6) [nM] | Kd (CXCL4) [nM] | Kd (CXCL11_HUMAN) [nM] | Kd (CXCL10_HUMAN) [nM] | Kd (CXCL1_HUMAN [9]) [nM] | Kd (CXCL8_HUMAN) [nM] | Kd (CXCL3_HUMAN [10]) [nM] | Kd (CCL4_HUMAN) [nM] | Kd (CCL16_HUMAN) [nM] | Kd (CCL11_HUMAN [11]) [nM] | Kd (CCL5_HUMAN) [nM] | Kd (CCL2_HUMAN) [nM] | Kd (CCL18_HUMAN) [nM] | Kd (CCL24_HUMAN) [nM] | Kd (CCL7_HUMAN) [nM] | further results |
| --- | --- | --- | --- | --- | --- | --- | --- | --- | --- | --- | --- | --- | --- | --- | --- | --- | --- | --- | --- | --- | --- |
| B1 |  |  |  |  |  |  |  |  |  |  |  |  |  |  |  |  |  |  |  |  | Kd (CCL11_HUMAN [1]): 36.8 nM; Kd (CCL14_HUMAN [2]): 6.43 nM; Kd (CCL8_HUMAN [3]): 193 nM; Kd (CCL13_HUMAN [4]): 1.64 nM |
| B2 | 6.05 | 10.5 | 13.3 | 5.11 | 12.1 | 9.12 | 393 | 394 | 7.9 |  |  |  |  |  |  |  |  |  |  |  |  |
| B3 | 1.83 | 4.61 | 5.65 | 2.14 | 9.81 | 6.27 | 381 | 322 | 7.46 |  |  |  |  |  |  |  |  |  |  |  |  |
| B4 |  |  |  |  |  |  |  |  |  | 5.08 | 3.56 | 89.9 | 3.54 | 0.636 | 1.39 | 0.947 | 24.8 | 0.143 | 3.18 | 0.287 | Kd (CCL17_HUMAN): 5.8 nM; Kd (CCL14_HUMAN [12]): 0.835 nM; Kd (CCL22_HUMAN): 2.36 nM; Kd (CCL4L1_HUMAN): 1.24 nM; Kd (CCL8_HUMAN [13]): 7.89 nM; Kd (CCL23_HUMAN): 5.13 nM; Kd (CCL15_HUMAN): 127 nM; Kd (CCL3_HUMAN): 2.22 nM; Kd (CCL21_HUMAN): 18.2 nM; Kd (CCL3L1_HUMAN): 2.91 nM; Kd (CCL13_HUMAN [14]): 0.176 nM; Kd (CCL1_HUMAN): 7.66 nM; Kd (CCL27_HUMAN): 42.6 nM; Kd (CXCL2 [15]): 48.9 nM; Kd (CXCL5 [16]): 52.7 nM |
| B5 |  |  |  |  |  |  |  |  |  | 2.72 | 1.5 | 61.4 | 3.55 | 0.503 | 1.54 | 0.754 | 32.1 | 0.201 | 3.58 | 0.435 | Kd (CCL17_HUMAN): 7.44 nM; Kd (CCL14_HUMAN [12]): 0.664 nM; Kd (CCL22_HUMAN): 2.18 nM; Kd (CCL4L1_HUMAN): 1.28 nM; Kd (CCL8_HUMAN [13]): 7.45 nM; Kd (CCL23_HUMAN): 7 nM; Kd (CCL15_HUMAN): 166 nM; Kd (CCL3_HUMAN): 1.89 nM; Kd (CCL21_HUMAN): 19.9 nM; Kd (CCL3L1_HUMAN): 3.09 nM; Kd (CCL13_HUMAN [14]): 0.207 nM; Kd (CCL1_HUMAN): 16.6 nM; Kd (CCL27_HUMAN): 36.2 nM; Kd (CXCL2 [15]): 25.2 nM; Kd (CXCL5 [16]): 22.7 nM |
